The target in this test is ItcR itaconate-binding domain (IBD) (ItcR truncation of residues 80-292). In words: SEC-MALS.

In the case of “ItcR itaconate-binding domain (IBD) (ItcR truncation of residues 80-292) (domain or fragment)”, the stoichiometry N was 2.

The values above are taken from article PMC9636186 (Nature Communications, 2022).
